Data on five molecules can be found in publication PMC3625234, “The L-Cysteine Desulfurase NFS1 Is Localized in the Cytosol where it Provides the Sulfur for Molybdenum Cofactor Biosynthesis in Humans” (PLoS ONE, 2013).

In test [1] the target is ECFP-MOCS3-RLD fusion (human). As to the kind of experiment: FRET or BRET; time-gated FLIM-FRET in transiently transfected HeLa cells; ECFP donor lifetime (long component τ1 of a bi-exponential fit) with EYFP acceptor; N = 30–42 cells. Background: In BRET a luciferase serves as donor, and the signal depends on an acceptor being close.
Test [2] concerns the target MOCS3-RLD (purified) (human). In words: SPR; Biacore T200, CM5 chip, target immobilized by amine coupling (400–600 RU), 25°C, 30 µL/min, 20 mM phosphate, 150 mM NaCl, 0.005% Tween 20, pH 7.4; analytes 0.31–10 µM; global fit, 1:1 binding, mean of 3 measurements.
In test [3] the target is T1, NFS1Δ1-55^C381A/ISD11 complex (human, UniProt Q9Y697 56-457; Q9HD34 1-91, C381A).
T1 construct: L-cysteine desulfurase NFS1, human, without residues 1-55, with C381A; ISD11, human; without ISD11 it precipitated; source: E. coli BL21(DE3), co-expressed (pUMT13 and pZM4), purified
T1 sequence (Q9Y697 56-457 C381A, chain 1 of 2): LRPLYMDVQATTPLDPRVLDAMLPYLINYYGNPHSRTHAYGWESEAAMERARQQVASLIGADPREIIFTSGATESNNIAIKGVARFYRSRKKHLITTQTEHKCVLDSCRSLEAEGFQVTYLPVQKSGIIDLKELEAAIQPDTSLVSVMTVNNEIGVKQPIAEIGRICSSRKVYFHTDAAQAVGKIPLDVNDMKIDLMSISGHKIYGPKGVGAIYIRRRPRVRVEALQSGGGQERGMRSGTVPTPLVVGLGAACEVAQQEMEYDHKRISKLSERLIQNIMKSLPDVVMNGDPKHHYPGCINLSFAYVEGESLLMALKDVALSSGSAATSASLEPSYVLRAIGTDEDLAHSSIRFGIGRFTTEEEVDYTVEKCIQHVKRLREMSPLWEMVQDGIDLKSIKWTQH
T1 sequence (Q9HD34 whole entry, chain 2 of 2, the tested form may be a part): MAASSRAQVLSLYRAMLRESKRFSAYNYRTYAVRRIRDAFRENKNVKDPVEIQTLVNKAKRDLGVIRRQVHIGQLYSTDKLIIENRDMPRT
The description is as above. The settings on record: both partners purified.

The target in the next test is T2, NFS1Δ1-55/ISD11 complex (human, UniProt Q9Y697 56-457; Q9HD34 1-91).
T2 construct: L-cysteine desulfurase NFS1, human, without residues 1-55; ISD11, human; source: E. coli BL21(DE3), co-expressed (pZM2 and pZM4), purified
T2 sequence (Q9Y697 56-457, stated change not applied, chain 1 of 2): as the sequence (Q9Y697 56-457 C381A, chain 1 of 2) above, with A326C counted along it
T2 sequence (Q9HD34 whole entry, stated change not applied, chain 2 of 2, the tested form may be a part): as the sequence (Q9HD34 whole entry, chain 2 of 2, the tested form may be a part) above
Described as above. The note with it: both partners purified.

With “EYFP-NFS1Δ1-55 fusion (from UniProt Q9Y697 56-457) (domain or fragment)”, in test [1], the ECFP donor lifetime τ1 was determined as 2.9 ns and the reduction of the ECFP donor lifetime was found to be 17%. In turn, “NFS1Δ1-55 (purified) (from UniProt Q9Y697 56-457) (domain or fragment)” had a Kd in test [2] of 36 nM. In test [2], “NFS1Δ1-55/ISD11 complex (from UniProt Q9Y697 56-457; Q9HD34 1-91)” returned a Kd of 166 nM.

The molecule “NFS1Δ1-55^C381A/ISD11 complex (from UniProt Q9Y697 56-457; Q9HD34 1-91)” showed a Kd in test [2] of 241 nM.

B1: MOCS3 purified after expression in Sf9 cells (enzyme, human, UniProt O95396 1-460, looked up)
chain: MASREEVLALQAEVAQREEELNSLKQKLASALLAEQEPQPERLVPVSPLPPKAALSRDEILRYSRQLVLPELGVHGQLRLGTACVLIVGCGGLGCPLAQYLAAAGVGRLGLVDYDVVEMSNLARQVLHGEALAGQAKAFSAAASLRRLNSAVECVPYTQALTPATALDLVRRYDVVADCSDNVPTRYLVNDACVLAGRPLVSASALRFEGQITVYHYDGGPCYRCIFPQPPPAETVTNCADGGVLGVVTGVLGCLQALEVLKIAAGLGPSYSGSLLLFDALRGHFRSIRLRSRRLDCAACGERPTVTDLLDYEAFCGSSATDKCRSLQLLSPEERVSVTDYKRLLDSGAFHLLLDVRPQVEVDICRLPHALHIPLKHLERRDAESLKLLKEAIWEEKQGTQEGAAVPIYVICKLGNDSQKAVKILQSLSAAQELDPLTVRDVVGGLMAWAAKIDGTFPQY
notes: MOCS3, human; no tag is named here; also called pMMC30; source: Sf9 cells, purified
Consider B1, for which the Kd in test [3] was found to be 218 nM; in the test with NFS1Δ1-55/ISD11 complex, 119 nM.

As a reminder, the Kd is the concentration at which binding is half-saturated.
